Test results as given in patent US20220213198A1, “METHOD OF TREATMENT” (The Council of the Queensland Institute of Medical Research, priority 2019, published 2022).
Entries after “also recorded” stand apart in the source; their conditions may differ. Each block holds one molecule with its values, some of them ahead of it.

Experiments:
MR1 / MAIT cells = details: cited from earlier work; for effect on MAIT cell activation: background statement
B16F10 melanoma cells = assay: B16F10 experimental lung metastasis model; assay type: in vivo, mouse
Experimental: FIG. 2. […] (A) The schematic and timeline of expanding MAIT cells from splenocytes derived from C57BL/6 WT mice with IL-2 and 5-OP-RU, for sorting and adoptive transfer into tumor-bearing mice. (B, C) Groups of WT or MR1^−/− or Rag2cγ^−/− mice (n=5-6/group) were injected i.v. with (B) 1×10^5 or (C) 1×10^4 B16F10 melanoma cells. In some groups, sorted MAIT or T conventional cells (cT) (non-MAIT αβ^+ T cells) (2×10^5 cells/mouse) from C57BL/6 (B) WT or (C) TCRδ^−/− mice were i.v. injected into the indicated groups of mice one day before tumor inoculation. (C) One group of mice received i.v injection of media alone as a control. (B, C) On day 14 relative to tumor cell inoculation, lungs were harvested and the metastatic burden was quantified by counting colonies on the lung surface. Data presented as mean±SEM. (D) B16F10 or LWT1 melanoma cells were stimulated in vitro with DMSO or 5-OP-RU (100 nM) for 4 hours before cell surface MR1 expression was determined by flow cytometry. Groups of C57BL/6 WT or MR1^−/− mice (n=5-6/group) were i.v. injected with (E) 1×10^5 B16F10 or (F) 5×10^5 LWT1 cells melanoma cells pulsed with DMSO or 5-OP-RU (100 nM, 4 hours). Fourteen days later relative to tumor cell inoculation, lungs were harvested and the metastatic burden was quantified by counting colonies on the lung surface. Data presented as mean±SEM. Experiments performed once for (B, C, F) and three times for (D, E) with one representative experiment shown. Significant differences between groups as indicated by crossbars were determined using a one-way ANOVA followed by Tukey's post-hoc test (B, E, F), *p<0.05, **p<0.01, ****p<0.0001
FIG. 5. […] (A) Generation of three independent B16F10 cell lines knocked out for MR1 using three different MR1 sgRNA. […] Empty vector transfected B16F10 cells were used as a positive control. (B, C) Groups of C57BL/6 WT, MR1^−/− or Rag2cγ^−/− mice (n=5-6/group) were i.v. injected with either (B) 1×10^5 B16F10 vector control cells or the indicated clone of B16F10 cells lacking MR1 (sgR1, sgR2, sgR3) or (C) 1×10^4 B16F10-MR1^KO cells (sgR3 clone). On day 14 relative to tumor cell inoculation, lungs were harvested and the metastatic burden was quantified by counting colonies on the lung surface. Data presented as mean±SEM. (D) Re-expression of GFP or GFP-MR1 expressing vector into B16F10-MR1^KO (sgR3 clone). MR1 surface expressions of these cells stimulated with or without 5-OP-RU were assessed by flow cytometry. (E) Groups of C57BL/6 WT mice (n=6/group) were i.v. injected with 1×10^5 B16F10-MR1^KO (sgR3 clone) transfected with empty GFP-expressing vector or MR1-GFP-expressing vector. (F) Groups of C57BL/6 WT or MR1^−/− mice were i.v. injected with parental B16F10 cells treated with vehicle (dd H2O) or AC-6-FP (10 μM, 18 hours). On day 14 relative to tumor cell injection, lungs were harvested and the metastatic burden was quantified by counting colonies on the lung surface. Data presented as mean±SEM. Experiments performed twice for (A-E) and once for (F). Significant differences between groups as indicated by crossbars were determined by a one-way ANOVA followed by Tukey's post-hoc test (A, F), or a Mann-Whitney test (C, E), *p<0.05, **p<0.01, ****p<0.0001.
FIG. 6. […] Groups of C57BL/6 WT or MR1^−/− mice (n=5-6/group) were i.v. injected with (A, B) 1×10^5 B16F10, (C) 1×10^5 parental B16F10 or 2×10^5 B16F10-MR1^KO (sgR3 clone) melanoma cells and (D) 5×10^5 LWT1 melanoma cells or s.c injected with (E) 1×10^6 MCA1956 fibrosarcoma or (F) 1×10^6 SM1WT1 melanoma cells on day 0.

[1] = target: T1, surface MR1 on mouse tumor cell lines (Mus musculus, UniProt Q8HWB0); details: stated as property of the ligand; cited from earlier work
T1 construct: endogenous in cells

mouse MR1 = mouse MR1 (Mus musculus, UniProt Q8HWB0); assay: Anti-MR1 reactivity with mouse MR1; assay type: binding; details: flow cytometry antibody
From the text: (§1) MR1 mRNA transcripts are present in different tissues and cell lines from mice and humans. […] In contrast, whether mouse tumor cell lines express MR1 has not previously been examined. […] Basally, the level of MR1 was almost undetectable on the surface of all tumor cell lines examined (FIG. 2D). […] The kinetics of MR1 upregulation on B16F10 cells was similar to what was previously reported for human C1R cells (B-cell lymphoblastoid cell line) (McWilliam et al., 2016). […] Next, the impact of up-regulation of MR1 on B16F10 or LWT1 prior to i.v injection to WT or MR1−/− mice on the number of lung metastases was assessed.

human MR1 = human MR1 (Homo sapiens, UniProt Q95460); assay: Anti-MR1 reactivity with human MR1; assay type: binding; details: flow cytometry antibody
From the text: as §1

[2] = target: T2, mouse MR1 (MHC class I-related protein 1) (mouse, UniProt Q8HWB0 19-341); assay: flow cytometry on mouse tumor cell lines with or without 5-OP-RU
T2 construct: whole, on cells; also called surface MR1
T2 sequence (Q8HWB0 19-341): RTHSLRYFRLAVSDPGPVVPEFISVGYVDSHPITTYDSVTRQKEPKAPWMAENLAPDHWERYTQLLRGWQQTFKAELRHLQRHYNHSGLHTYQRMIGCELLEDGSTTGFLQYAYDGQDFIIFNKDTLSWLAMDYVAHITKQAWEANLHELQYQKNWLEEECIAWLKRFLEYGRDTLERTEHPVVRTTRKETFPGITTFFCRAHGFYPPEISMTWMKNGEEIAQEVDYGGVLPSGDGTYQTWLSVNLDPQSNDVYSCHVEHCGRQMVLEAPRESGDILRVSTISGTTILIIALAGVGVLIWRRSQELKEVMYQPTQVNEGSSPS
From the text: as §1

[3] = target: T3, human MR1 (MHC class I-related protein 1) (human, UniProt Q95460 23-341); assay: flow cytometry; human cell lines with or without 5-OP-RU (data not shown)
T3 construct: The assays used endogenous MR1 of human cell lines (flow cytometry) and of FFPE tumor sections (IHC); no signal peptide limits are stated
T3 sequence (Q95460 23-341 limits assumed): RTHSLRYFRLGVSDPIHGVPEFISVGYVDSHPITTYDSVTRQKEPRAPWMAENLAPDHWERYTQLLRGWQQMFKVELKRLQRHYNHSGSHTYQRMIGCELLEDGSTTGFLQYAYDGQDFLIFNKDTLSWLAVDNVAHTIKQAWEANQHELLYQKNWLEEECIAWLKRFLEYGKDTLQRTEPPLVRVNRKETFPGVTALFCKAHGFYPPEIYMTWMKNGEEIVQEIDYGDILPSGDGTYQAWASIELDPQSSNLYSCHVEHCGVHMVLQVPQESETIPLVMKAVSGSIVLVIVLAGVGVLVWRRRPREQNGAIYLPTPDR

Molecule: Nc1nc2ncc(C=O)nc2c(=O)[nH]1 [6-FP, 6-formylpterin]
effect on MAIT cell activation (MR1 / MAIT cells): inhibit MAIT cell activation

Molecule: CC(=O)Nc1nc2ncc(C=O)nc2c(=O)[nH]1 [AC-6-FP, acetyl 6-formylpterin]
number of lung metastases (B16F10 melanoma cells; WT mice injected with B16F10 pre-treated 10 μM 18 hours, vs vehicle-treated, day 14): decrease in metastases numbers
number of lung metastases (B16F10 melanoma cells; WT mice injected with B16F10 pre-treated 10 μM 18 hours, vs vehicle-treated, day 14, listed as Ac-6-FP): dramatically reduced
MR1 expression [1]: upregulates MR1
effect on MAIT cell activation (MR1 / MAIT cells): does not activate MAIT cells; also recorded: inhibit MAIT cell activation

B1: 26.5: anti-MR1 blocking antibody from hybridoma clone 26.5, IgG2a isotype; heavy chain SEQ ID NO: 4, light chain SEQ ID NO: 8 (antibody, listed as Mus musculus, V domains shown)
VH: MEWSRVFIFLLSITAGVHSQVQLQQSGTELVRPGTSVKVSCKASGYAFSNYLIEWIKQRPGQGLEWIGVINPGSGGISYNEKFKGKATLTADKSSSTAYMQLSSLTSEDSAVYFCARWGYLYYYTMDHWGQGTSVTVSS
VL: MKLPVRLLVLMFWIPASSSDVLMTQTPLSLPVSLGDQASISCRSSQSIVQGSGNTFLDWYLQKPGQSPKVLIYKVSNRFSGVPARFSGSGSGTDFTLKISRVEAEDLGVYYCFQGSHVPYTFGGGTKLEIK
number of lung metastases (B16F10 melanoma cells; B16F10 tumor-bearing MR1-/- mice, antibody vs cIg): no further decrease
B16F10 lung metastases (B16F10 melanoma cells; WT mice, 250 μg/mouse i.p. days -1, 0, 3 and 7, vs cIg, day 14): effectively suppressed lung metastases
suppression of B16F10 lung metastases, three vs four doses (B16F10 melanoma cells; WT mice, 250 μg/mouse i.p., days -1, 0, 3 vs days -1, 0, 3 and 7): more effective when four doses
reactivity with mouse MR1 (mouse MR1): cross-reacts with both mouse and human MR1
reactivity with human MR1 (human MR1): cross-reacts with both mouse and human MR1
blocking of MAIT cell interaction with MR1 (MR1 / MAIT cells; stated as known): block MAIT cells from interacting with MR1

binding result [2]: binds
binding result [3]: binds
B2: anti-MR1 antibody 26.5 (antibody, V domains shown)
VH: QVQLQQSGTELVRPGTSVKVSCKASGYAFSNYLIEWIKQRPGQGLEWIGVINPGSGGISYNEKFKGKATLTADKSSSTAYMQLSSLTSEDSAVYFCARWGYLYYYTMDHWGQGTSVTVSS
VL: DVLMTQTPLSLPVSLGDQASISCRSSQSIVQGSGNTFLDWYLQKPGQSPKVLIYKVSNRFSGVPARFSGSGSGTDFTLKISRVEAEDLGVYYCFQGSHVPYTFGGGTKLEIK
